Results reported in US20240002497A1 (Merck Sharp & Dohme, published 2024).
Substitutions are numbered along the chain they refer to. Names and notes keep the numbering of the source. Read-outs that look alike come from different tables or passages of the source.

B1: F0103262B06 (parental)-FLAG-HIS6 (VHH)
VHH: EVQLVESGGGLVQPGGSLRLSCAGSTRTFSTYAMGWFRQAPGREREFVAHINFSGSSTRYADSVKGRFTISRDNAKNMGYLQMNSLKPEDTAVYYCAARWVAGPPRYDYEYWGQGTLVTVSS
B2: F0103387G04 (parental)-FLAG-HIS6 (VHH)
VHH: EVQLVESGGGLAQPGGSLRLSCAASGPVFNINKMAWYRRAPGKQRELVASVTPTGSISYTDSVKGRFTISRDGSKRWSLQMNSLTPEDTAVYYCNALLQPDSYSNTRTYWGQGTLVTVSS
notes: also called F01033387G04
B3: F0103265A11 (parental)-FLAG-HIS6 (VHH)
VHH: EVQLVESGGGLVQPGGSLRLSCAASGMLFNANTQGWYRQAPGKQRELVAFIFSGGYTNYVDSVKGRFTISRDNAKRTMYLQMNSLKPEDSAIYYCSLSRYLGQGTLVTVSS
notes: also called F01033265A11
B4: F0103387G05 (parental)-FLAG-HIS6 (VHH)
VHH: EVQLVESGGGLVQAGGSLRLSCDASGRILRIGYMRWHRQGAGKQREFVARITDDSATDYADSVKGRFTISRDNAKNTVYLQMNNLNPEDTAVYYCEALVTASVRGGSIHSGTYWGRGTLVTVSS
B5: F010301647 (VHH)
VHH: B4 VHH with L11V, A14P, F47L, N84S, N86R, V92L, R116Q
notes: also called F0103387G05(L11V, A14P, F47L, N82bS, N83R, V89L, R105Q); F47L
B6: F0103362B08 (parental)-FLAG-HIS6 (VHH)
VHH: EVQLVESGGGLVQAGGSLRLSCAASVRPFSTSAMGWFRQAPEKEREAVAGILWNGIVTYYADSVKGRFTISRDNAKNEVYLQMNKLKPEDTAVYYCALDRDYGGRSFSAYEYEYWGQGTLVTVSS

Columns and labels:
[1] = target: T1, huNav157chimera14+β1-β2-β3 (human, UniProt Q07699 19-218; O60939 30-215; Q9NY72 23-215); test: binding FACS, HEK FlpIn cells
T1 construct: HEK FlpIn line; also called huNav157 chimera 14-beta1-beta2-beta3; Nav157ch14-β1-β2-β3
Experimental: (§1) Binding of the ISVDs to cell-expressed Nav1.7α was detected via murine anti-Flag (Sigma, catalog #F1804). Briefly, cells were resuspended in FACS buffer (PBS, 10% FBS, NaN₃) and transferred to a 96-well V-bottom plate at 1×10^5 cells/well. Purified FLAG3-tagged ISVD was diluted in FACS buffer and added to the cells for 30 minutes at 4° C. […] Prior to the read-out, the samples were resuspended in 1 μg/mL propidium iodide (Sigma, catalog #P4170) to exclude dead cells. Between each step, the cells were centrifuged for 5 minutes at 200 grams and washed with 100 μL/well FACS buffer.
(§2) Crude periplasmic extracts containing ISVDs from phage display selections (as described above) were screened in FACS for binding to huNav1.7α but not to huNav1.5a. […] As used in Table 8, the drawings, and throughout the description, Navβ1, Navβ2, and Navβ3 are human homologs unless specifically identified otherwise.

huNav1.7α+β1-β2-β3 [2] = target: T2, huNav1.7α+β1-β2-β3 (human, UniProt Q15858 1-1988; Q07699 19-218; O60939 30-215; Q9NY72 23-215); test: binding FACS, HEK FlpIn cells
T2 construct: 5N11S variant; also called huNav1.7-beta1-beta2-beta3; huNav1.7α+Navβ1-Navβ2-Navβ3
Experimental: as §1, §2

huNav1.5α+β1-β2-β3 = target: T3, huNav1.5α+β1-β2-β3 (human, UniProt Q14524 1-2016; A5A6L6 19-218; O60939 30-215; Q2KI11 23-215); test: binding FACS, HEK FlpIn cells
T3 construct: in the cell P2A cleaves it into α, β1, β2, β3; also called huNav1.5-beta1-beta2-beta3
Experimental: as §1, §2

[3] = target: T4, huNav1.7(N146S, V194I, F276V, R277Q, E281V, V331M, E504D, D507E, S508N, N533S)-β1-β2-β3 (human, UniProt Q15858 1-1988; Q07699 19-218; O60939 30-215; Q9NY72 23-215); test: FACS on transiently transfected HEK293T cells
T4 construct: Transiently on HEK293T cells; The text prints V1941 for V194I; also called chimeric variant of huNav1.7α with all DI huNav1.7α-rhNav1.7α polymorphisms
Experimental: as §1
FACS binding studies (as described above) were performed on HEK293T cells transiently transfected with a chimeric variant of huNav1.7α in which all the huNav1.7α-rhNav1.7α polymorphisms of DI are present (N146S, V1941, F276V, R277Q, E281V, V331M, E504D, D507E, S508N, N533S). Replacing the huNav1.7α DI sequence for that of rhNav1.7α is sufficient to abolish the binding of F0103262CO2, F0103265B04, F0103262B06, and F0103265A11 to huNav1.7α, recapitulating the absence of binding on rhNav1.7α (see FIGS. 21A-21B).

huNav1.7α+β1 [4] = target: T5, huNav1.7α+β1 (human, UniProt Q15858 1-1988; Q07699 19-218); test: binding FACS, HEK293 cells
T5 construct: also called huNav1.7-beta1; HEKa/β1
Experimental: as §1, §2

rhNav1.7α+β1-β2-β3 = target: T6, rhNav1.7α+β1-β2-β3 (rhesus monkey α subunit with human β …); test: binding FACS, CHO FlpIn cells
T6 construct: P2A cleaves it into α, β1, β2, β3; also called rhNav1.7-beta1-beta2-beta3
Experimental: as §1, §2

huNav1.7α+β1-β2-β3 [5] = target: T2, huNav1.7α+β1-β2-β3; test: binding FACS, CHO FlpIn cells
Experimental: as §1, §2

huNav1.3α = target: T7, huNav1.3α (human, UniProt Q9NY46 1-2000); test: binding FACS on stable cell lines
T7 construct: also called huNav1.3 (alpha subunit)

huNav1.1α = huNav1.1α (human, UniProt P35498 1-2009); test: binding FACS on stable cell lines
huNav1.4α = target: T8, huNav1.4α (human, UniProt P35499 1-1836); test: binding FACS on stable cell lines
T8 construct: also called huNav1.4 (alpha subunit)

huNav1.8α = target: T9, huNav1.8α (human, UniProt Q9Y5Y9 1-1956); test: binding FACS on stable cell lines
T9 construct: also called huNav1.8 (alpha subunit)

huNav1.6α = target: T10, huNav1.6α (human, UniProt Q9UQD0 1-1980); test: binding FACS on stable cell lines
T10 construct: also called huNav1.6 (alpha subunit)

huNav1.2α = target: T11, huNav1.2α (human, UniProt Q99250 1-2005); test: binding FACS on stable cell lines
T11 construct: also called huNav1.2 (alpha subunit)

rhNav1.7α = rhNav1.7α (rhesus monkey, UniProt Q15858 1-1988 (human entry)); test: cell-based or functional assay
[6] = target: T1, huNav157chimera14+β1-β2-β3; test: binding FACS with purified FLAG3-HIS6 tagged ISVDs
Experimental: as §1, §2

huNav1.7α+β1-β2-β3 [7] = target: T2, huNav1.7α+β1-β2-β3; test: binding FACS, HEK FlpIn cells; remark: listed apart in the source
huNav1.7α = target: T12, huNav1.7α (human, UniProt Q15858 1-1988); test: binding FACS, HEKa cells
T12 construct: HEK cells expressing the α subunit alone; also called HEKa; HEK huNav1.7α
Procedure, shortened: (§3)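 Flow cytometry read-out of anti-Flag signal on propidium iodide-negative cells measured ISVD binding. Purified FLAG3-tagged ISVD, diluted in PBS with 10% FBS and NaN₃, was applied to the cells for 30 minutes at 4° C.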

huNav1.7α+β1 [8] = target: T5, huNav1.7α+β1; test: binding FACS, HEKa/β1 cells
Procedure, shortened: as §3

[9] = target: T13, huNav1.7α + β1-β2-β3 (human Nav1.7α co-expressed with Navβ1, Navβ2 and Navβ3) (human); test: binding FACS, HEK FlpIn cells
T13 construct: also called huNav1.7-beta1-beta2-beta3

huNav157 chimera 14 [10] = target: T14, huNav157 chimera 14 (human); test: binding FACS, HEK FlpIn cells
T14 construct: Chimera without β subunits; also called Nav157ch14

[11] = target: T15, huNav157 chimera 14 + β1-β2-β3 (human); test: binding FACS, HEK FlpIn cells
T15 construct: Chimera of huNav1.7α (extracellular loops and transmembrane helices) and huNav1.5α (intracellular loops); also called Nav157ch14-β1-β2-β3; huNav157 chimera 14-beta1-beta2-beta3

[12] = target: T16, huNav1.7α + β1 (human Nav1.7α co-expressed with Navβ1) (human, UniProt Q15858 1-1988; Q07699 19-218); test: binding FACS, HEKa/β1 cells
T16 construct: also called HEK293 human Nav1.7α + β1; HEKa/β1 Nav1.7α

huNav157 chimera 14 [13] = target: T14, huNav157 chimera 14; test: binding FACS, HEK FlpIn cells; remark: listed apart in the source
[14] = target: T15, huNav157 chimera 14 + β1-β2-β3; test: binding FACS, HEK FlpIn cells; remark: listed apart in the source
[15] = target: T17, huNav1.7α (human Nav1.7 alpha subunit, expressed without β subunits) (human, UniProt Q15858 1-1988); test: binding FACS, HEKa cells
T17 construct: also called HEK293 human Nav1.7α; HEKa Nav1.7α

[16] = target: T17, huNav1.7α (human Nav1.7 alpha subunit, …); test: binding FACS, HEKa cells; remark: listed apart in the source
[17] = target: T16, huNav1.7α + β1 (human Nav1.7α …); test: binding FACS, HEKa/β1 cells; remark: listed apart in the source
[18] = target: T17, huNav1.7α (human Nav1.7 alpha subunit, …); test: binding FACS, huNav1.7α without β; minus = weaker than reference

T11 sequence (Q99250 whole entry): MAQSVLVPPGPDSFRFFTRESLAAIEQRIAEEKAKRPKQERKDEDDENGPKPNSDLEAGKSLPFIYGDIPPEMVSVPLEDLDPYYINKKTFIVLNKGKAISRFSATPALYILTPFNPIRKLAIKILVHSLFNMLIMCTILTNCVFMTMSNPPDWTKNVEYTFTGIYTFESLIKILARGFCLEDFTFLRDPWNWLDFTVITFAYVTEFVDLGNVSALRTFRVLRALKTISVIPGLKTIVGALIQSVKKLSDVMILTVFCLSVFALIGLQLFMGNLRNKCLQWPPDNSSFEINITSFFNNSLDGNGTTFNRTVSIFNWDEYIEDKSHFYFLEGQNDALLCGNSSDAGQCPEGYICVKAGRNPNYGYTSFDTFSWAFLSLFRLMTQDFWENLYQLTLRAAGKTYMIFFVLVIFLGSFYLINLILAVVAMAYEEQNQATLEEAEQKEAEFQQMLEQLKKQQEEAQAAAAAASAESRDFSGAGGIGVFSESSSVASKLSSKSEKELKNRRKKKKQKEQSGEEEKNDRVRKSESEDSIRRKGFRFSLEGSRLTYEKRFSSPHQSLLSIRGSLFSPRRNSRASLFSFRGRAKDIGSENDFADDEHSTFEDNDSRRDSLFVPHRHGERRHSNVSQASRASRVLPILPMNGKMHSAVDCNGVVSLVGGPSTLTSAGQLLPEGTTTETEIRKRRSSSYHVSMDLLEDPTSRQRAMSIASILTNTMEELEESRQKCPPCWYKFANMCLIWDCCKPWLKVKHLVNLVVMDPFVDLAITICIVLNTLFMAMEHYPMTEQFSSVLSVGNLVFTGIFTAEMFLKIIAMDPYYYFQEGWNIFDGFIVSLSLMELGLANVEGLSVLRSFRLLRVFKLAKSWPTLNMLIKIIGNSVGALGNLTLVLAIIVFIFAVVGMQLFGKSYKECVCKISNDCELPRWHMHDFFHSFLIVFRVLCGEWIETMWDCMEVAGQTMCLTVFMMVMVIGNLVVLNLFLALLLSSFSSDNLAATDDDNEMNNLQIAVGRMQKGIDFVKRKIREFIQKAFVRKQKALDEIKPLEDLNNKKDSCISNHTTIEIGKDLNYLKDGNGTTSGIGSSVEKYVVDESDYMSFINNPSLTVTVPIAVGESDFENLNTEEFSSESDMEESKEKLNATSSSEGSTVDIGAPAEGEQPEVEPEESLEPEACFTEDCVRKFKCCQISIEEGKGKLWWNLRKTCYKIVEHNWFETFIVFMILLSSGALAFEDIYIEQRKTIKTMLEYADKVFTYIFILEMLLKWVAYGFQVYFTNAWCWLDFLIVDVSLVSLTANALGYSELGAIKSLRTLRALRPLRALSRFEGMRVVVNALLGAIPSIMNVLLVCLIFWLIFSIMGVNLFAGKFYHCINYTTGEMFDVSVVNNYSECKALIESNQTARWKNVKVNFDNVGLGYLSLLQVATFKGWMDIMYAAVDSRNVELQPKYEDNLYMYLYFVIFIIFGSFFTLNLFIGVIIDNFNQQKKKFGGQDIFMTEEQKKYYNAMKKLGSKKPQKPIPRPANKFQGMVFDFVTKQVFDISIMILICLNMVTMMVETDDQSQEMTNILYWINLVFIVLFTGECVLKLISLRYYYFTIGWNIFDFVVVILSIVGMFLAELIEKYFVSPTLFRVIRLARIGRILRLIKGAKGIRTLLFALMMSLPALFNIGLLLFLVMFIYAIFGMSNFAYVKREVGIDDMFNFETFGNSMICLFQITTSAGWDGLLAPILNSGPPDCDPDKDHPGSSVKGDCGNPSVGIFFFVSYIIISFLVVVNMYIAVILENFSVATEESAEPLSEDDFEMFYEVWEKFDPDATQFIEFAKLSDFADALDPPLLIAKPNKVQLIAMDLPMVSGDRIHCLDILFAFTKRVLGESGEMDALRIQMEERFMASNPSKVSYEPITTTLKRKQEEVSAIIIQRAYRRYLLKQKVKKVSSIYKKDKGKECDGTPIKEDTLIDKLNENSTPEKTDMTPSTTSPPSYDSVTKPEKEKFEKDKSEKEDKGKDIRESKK
T9 sequence (Q9Y5Y9 whole entry): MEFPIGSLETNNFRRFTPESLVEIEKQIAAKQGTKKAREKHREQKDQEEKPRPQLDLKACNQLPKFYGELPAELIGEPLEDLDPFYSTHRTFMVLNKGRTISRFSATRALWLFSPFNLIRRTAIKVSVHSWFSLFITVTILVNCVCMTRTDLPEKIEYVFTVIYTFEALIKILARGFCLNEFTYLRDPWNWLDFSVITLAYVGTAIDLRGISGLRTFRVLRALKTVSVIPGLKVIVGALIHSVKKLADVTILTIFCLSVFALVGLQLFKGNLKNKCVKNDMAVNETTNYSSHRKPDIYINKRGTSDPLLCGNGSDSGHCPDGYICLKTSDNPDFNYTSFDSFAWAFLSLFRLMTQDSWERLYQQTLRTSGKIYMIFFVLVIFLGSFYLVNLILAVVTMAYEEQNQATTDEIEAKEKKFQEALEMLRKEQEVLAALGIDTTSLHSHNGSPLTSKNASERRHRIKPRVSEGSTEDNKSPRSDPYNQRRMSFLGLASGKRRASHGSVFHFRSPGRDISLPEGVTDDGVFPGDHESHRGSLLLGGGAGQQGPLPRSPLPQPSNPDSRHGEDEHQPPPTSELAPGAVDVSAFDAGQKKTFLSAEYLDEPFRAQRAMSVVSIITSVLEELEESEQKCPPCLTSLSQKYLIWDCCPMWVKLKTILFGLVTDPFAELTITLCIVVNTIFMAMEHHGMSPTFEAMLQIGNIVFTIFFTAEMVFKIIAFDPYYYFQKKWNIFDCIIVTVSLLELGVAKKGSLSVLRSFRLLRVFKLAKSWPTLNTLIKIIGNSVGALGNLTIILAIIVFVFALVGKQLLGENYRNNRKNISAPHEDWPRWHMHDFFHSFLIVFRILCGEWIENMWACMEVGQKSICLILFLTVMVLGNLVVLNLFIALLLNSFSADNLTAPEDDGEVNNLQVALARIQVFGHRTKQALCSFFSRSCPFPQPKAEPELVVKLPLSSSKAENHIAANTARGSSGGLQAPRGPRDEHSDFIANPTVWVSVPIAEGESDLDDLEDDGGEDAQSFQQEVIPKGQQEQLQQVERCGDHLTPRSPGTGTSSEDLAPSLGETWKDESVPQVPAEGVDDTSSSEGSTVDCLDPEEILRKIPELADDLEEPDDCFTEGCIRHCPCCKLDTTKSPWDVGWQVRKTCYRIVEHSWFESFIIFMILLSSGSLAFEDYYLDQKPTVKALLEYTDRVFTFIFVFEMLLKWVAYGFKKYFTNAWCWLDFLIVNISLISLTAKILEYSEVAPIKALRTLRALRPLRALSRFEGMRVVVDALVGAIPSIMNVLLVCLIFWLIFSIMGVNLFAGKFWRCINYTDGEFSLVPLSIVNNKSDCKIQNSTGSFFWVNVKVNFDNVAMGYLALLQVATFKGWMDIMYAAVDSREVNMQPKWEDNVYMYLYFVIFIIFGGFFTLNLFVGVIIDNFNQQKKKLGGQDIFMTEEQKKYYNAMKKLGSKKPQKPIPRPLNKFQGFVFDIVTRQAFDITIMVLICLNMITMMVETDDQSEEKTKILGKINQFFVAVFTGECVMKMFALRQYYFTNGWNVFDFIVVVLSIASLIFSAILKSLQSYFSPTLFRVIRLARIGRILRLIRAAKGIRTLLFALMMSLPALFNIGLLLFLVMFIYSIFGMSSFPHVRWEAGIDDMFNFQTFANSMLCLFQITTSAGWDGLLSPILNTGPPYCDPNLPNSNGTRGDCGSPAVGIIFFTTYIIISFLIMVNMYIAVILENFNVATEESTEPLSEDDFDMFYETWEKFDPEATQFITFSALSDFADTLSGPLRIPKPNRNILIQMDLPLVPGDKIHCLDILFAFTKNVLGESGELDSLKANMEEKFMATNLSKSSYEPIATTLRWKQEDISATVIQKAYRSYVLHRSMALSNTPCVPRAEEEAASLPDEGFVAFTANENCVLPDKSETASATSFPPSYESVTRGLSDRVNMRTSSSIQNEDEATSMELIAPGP

Binder	EC50 [1] [µM]	EC50 (huNav1.7α+β1-β2-β3 [2]) [µM]	binding result (huNav1.5α+β1-β2-β3)	binding result [3]	EC50 (huNav1.7α+β1 [4]) [µM]	binding result (rhNav1.7α+β1-β2-β3)	EC50 (huNav1.7α+β1-β2-β3 [5]) [µM]	binding result (huNav1.3α)	binding result (huNav1.1α)	binding result (huNav1.4α)	binding result (huNav1.8α)	binding result (huNav1.6α)	binding result (huNav1.2α)	binding result [6]	Bmax (huNav157 chimera 14 [10]) [%]	EC50 (huNav157 chimera 14 [10]) [µM]	EC50 [11] [µM]	EC50 [12] [µM]	Bmax [16] [%]	EC50 [16] [µM]	further results
B1	0.016	0.025	no binding	no binding (tested: 1 µM)	0.02	no binding	0.019	no binding	no binding	no binding	no binding	no binding	no binding	–	–	–	–	–	–	–	–
B2	–	–	no binding	–	–	–	–	–	–	–	no binding	–	–	binds	–	–	–	–	–	–	2-pulse IC50 [M], P1 (rhNav1.7α): 7e-06 M; 2-pulse IC50 [M], P2 (rhNav1.7α): 3e-06 M
B3	0.034	0.037	no binding	no binding (tested: 1 µM)	0.0084	no binding	0.066	no binding	no binding	no binding	no binding	no binding	no binding	–	–	–	–	–	–	–	EC50 (huNav1.7α+β1-β2-β3 [7]): 0.077 µM; binding result (huNav1.7α): no binding; Bmax relative to '535 (huNav1.7α+β1 [8]): 34%; EC50 (huNav1.7α+β1 [8]): 0.011 µM
B4	–	–	–	–	–	–	–	–	–	–	–	–	–	–	100	0.0028	0.0036	0.0019	100	0.0031	EC50 [9]: 0.0027 µM; EC50 (huNav157 chimera 14 [13]): 0.0028 µM; EC50 [14]: 0.0036 µM; EC50 [15]: 0.0031 µM; EC50 [17]: 0.0019 µM
B5	–	–	–	–	–	–	–	–	–	–	–	–	–	–	80	0.012	0.0047	0.004	75	0.008	EC50 fold change compared to reference [18]: -2 fold
B6	–	0.042	no binding	–	0.059	no binding	0.11	no binding	no binding	no binding	no binding	no binding	no binding	binds	–	–	–	–	–	–	–
